Test results published in patent US20230220021A1 (UNIVERSITY OF COPENHAGEN, published 2023).
[ ]: non-standard residue; d: D form.

Biological target: T1, (7× His)-PSD-95-PDZ2 wild type (UniProt P78352 160-246)
T1 construct: domain: PDZ2; recombinant from E. coli; also called PSD-95-PDZ2 WT; not shown: 7x His tag
Experiment: FP competition

T1 sequence (P78352 160-246): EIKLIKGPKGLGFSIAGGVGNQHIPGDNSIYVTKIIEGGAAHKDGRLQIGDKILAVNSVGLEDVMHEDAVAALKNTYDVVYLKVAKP

Row | Ki [nM] | Relative Ki (Ki mut/Ki WT) | Binder
1 | 1270 | 0.85 | cyclo(THLETTFTGDGTPKTIRYTQ[dP]GQ) (SMILES CC[C@H](C)[C@@H]1NC(=O)[C@H]([C@@H](C)O)NC(=O)[C@H](CCCCN)NC(=O)[C@@H]2CCCN2C(=O)[C@H]([C@@H](C)O)NC(=O)CNC(=O)[C@H](CC(=O)O)NC(=O)CNC(=O)[C@H]([C@@H](C)O)NC(=O)[C@H](Cc2ccccc2)NC(=O)[C@H]([C@@H](C)O)NC(=O)[C@H]([C@@H](C)O)NC(=O)[C@H](CCC(=O)O)NC(=O)[C@H](CC(C)C)NC(=O)[C@H](Cc2c[nH]cn2)NC(=O)[C@H]([C@@H](C)O)NC(=O)[C@H](CCC(N)=O)NC(=O)CNC(=O)[C@H]2CCCN2C(=O)[C@H](CCC(N)=O)NC(=O)[C@H]([C@@H](C)O)NC(=O)[C@H](Cc2ccc(O)cc2)NC(=O)[C@H](CCCNC(=N)N)NC1=O) [cyclic nNOS β-hairpin peptide V122Y]
2 | 1870 | 1.25 | cyclo(THLETTFTGDGTPKTIRVYQ[dP]GQ) (SMILES CC[C@H](C)[C@@H]1NC(=O)[C@H]([C@@H](C)O)NC(=O)[C@H](CCCCN)NC(=O)[C@@H]2CCCN2C(=O)[C@H]([C@@H](C)O)NC(=O)CNC(=O)[C@H](CC(=O)O)NC(=O)CNC(=O)[C@H]([C@@H](C)O)NC(=O)[C@H](Cc2ccccc2)NC(=O)[C@H]([C@@H](C)O)NC(=O)[C@H]([C@@H](C)O)NC(=O)[C@H](CCC(=O)O)NC(=O)[C@H](CC(C)C)NC(=O)[C@H](Cc2c[nH]cn2)NC(=O)[C@H]([C@@H](C)O)NC(=O)[C@H](CCC(N)=O)NC(=O)CNC(=O)[C@H]2CCCN2C(=O)[C@H](CCC(N)=O)NC(=O)[C@H](Cc2ccc(O)cc2)NC(=O)[C@H](C(C)C)NC(=O)[C@H](CCCNC(=N)N)NC1=O) [cyclic nNOS β-hairpin peptide T123Y]
3 | 1690 | 1.13 | cyclo(THLETTFTGDGTPKTIRRTQ[dP]GQ) (SMILES CC[C@H](C)[C@@H]1NC(=O)[C@H]([C@@H](C)O)NC(=O)[C@H](CCCCN)NC(=O)[C@@H]2CCCN2C(=O)[C@H]([C@@H](C)O)NC(=O)CNC(=O)[C@H](CC(=O)O)NC(=O)CNC(=O)[C@H]([C@@H](C)O)NC(=O)[C@H](Cc2ccccc2)NC(=O)[C@H]([C@@H](C)O)NC(=O)[C@H]([C@@H](C)O)NC(=O)[C@H](CCC(=O)O)NC(=O)[C@H](CC(C)C)NC(=O)[C@H](Cc2c[nH]cn2)NC(=O)[C@H]([C@@H](C)O)NC(=O)[C@H](CCC(N)=O)NC(=O)CNC(=O)[C@H]2CCCN2C(=O)[C@H](CCC(N)=O)NC(=O)[C@H]([C@@H](C)O)NC(=O)[C@H](CCCNC(=N)N)NC(=O)[C@H](CCCNC(=N)N)NC1=O) [cyclic nNOS β-hairpin peptide V122R]
4 | 1340 | 0.89 | cyclo(THLETTFTGDGTPKTIRFTQ[dP]GQ) (SMILES CC[C@H](C)[C@@H]1NC(=O)[C@H]([C@@H](C)O)NC(=O)[C@H](CCCCN)NC(=O)[C@@H]2CCCN2C(=O)[C@H]([C@@H](C)O)NC(=O)CNC(=O)[C@H](CC(=O)O)NC(=O)CNC(=O)[C@H]([C@@H](C)O)NC(=O)[C@H](Cc2ccccc2)NC(=O)[C@H]([C@@H](C)O)NC(=O)[C@H]([C@@H](C)O)NC(=O)[C@H](CCC(=O)O)NC(=O)[C@H](CC(C)C)NC(=O)[C@H](Cc2c[nH]cn2)NC(=O)[C@H]([C@@H](C)O)NC(=O)[C@H](CCC(N)=O)NC(=O)CNC(=O)[C@H]2CCCN2C(=O)[C@H](CCC(N)=O)NC(=O)[C@H]([C@@H](C)O)NC(=O)[C@H](Cc2ccccc2)NC(=O)[C@H](CCCNC(=N)N)NC1=O) [cyclic nNOS β-hairpin peptide V122F]
5 | 1590 | 1.06 | cyclo(THLETTFTGDGTPKTIRVRQ[dP]GQ) (SMILES CC[C@H](C)[C@@H]1NC(=O)[C@H]([C@@H](C)O)NC(=O)[C@H](CCCCN)NC(=O)[C@@H]2CCCN2C(=O)[C@H]([C@@H](C)O)NC(=O)CNC(=O)[C@H](CC(=O)O)NC(=O)CNC(=O)[C@H]([C@@H](C)O)NC(=O)[C@H](Cc2ccccc2)NC(=O)[C@H]([C@@H](C)O)NC(=O)[C@H]([C@@H](C)O)NC(=O)[C@H](CCC(=O)O)NC(=O)[C@H](CC(C)C)NC(=O)[C@H](Cc2c[nH]cn2)NC(=O)[C@H]([C@@H](C)O)NC(=O)[C@H](CCC(N)=O)NC(=O)CNC(=O)[C@H]2CCCN2C(=O)[C@H](CCC(N)=O)NC(=O)[C@H](CCCNC(=N)N)NC(=O)[C@H](C(C)C)NC(=O)[C@H](CCCNC(=N)N)NC1=O) [cyclic nNOS β-hairpin peptide T123R]

Biological target: T1, (7× His)-PSD-95-PDZ2 wild type
Experiment: FP competition
Remark: another data set of the same source
Description: Fluorescence polarization (FP). FP assays were performed in a 384-well plate format. Fluorescence polarization was measured using a Safire 2 plate reader. The instrument Z-factor was optimized for each assay. The G-factor was calibrated to an initial milli polarization value of 20. […] Every measurement was performed in NaPI 50 mM, 50 mM NaCl and 1% BSA at pH 7.2, 25° C. […] The curves were done in triplicates. […] The mili polarization (mP) values were plotted as a function of peptide concentration and fitted to a sigmoidal dose-response curve using Prism software 8.0 (GraphPad). The Kᵢ values were calculated according to Nikolovska-Coleska Z. et al.⁴⁰⁻⁴¹

Row | Ki [nM] | Relative Ki (Ki mut/Ki WT) | Binder
6 | 3220 | 2.15 | cyclo(THLETTFTGAGTPKTIRVTQ[dP]GQ) (SMILES CC[C@H](C)[C@@H]1NC(=O)[C@H]([C@@H](C)O)NC(=O)[C@H](CCCCN)NC(=O)[C@@H]2CCCN2C(=O)[C@H]([C@@H](C)O)NC(=O)CNC(=O)[C@H](C)NC(=O)CNC(=O)[C@H]([C@@H](C)O)NC(=O)[C@H](Cc2ccccc2)NC(=O)[C@H]([C@@H](C)O)NC(=O)[C@H]([C@@H](C)O)NC(=O)[C@H](CCC(=O)O)NC(=O)[C@H](CC(C)C)NC(=O)[C@H](Cc2c[nH]cn2)NC(=O)[C@H]([C@@H](C)O)NC(=O)[C@H](CCC(N)=O)NC(=O)CNC(=O)[C@H]2CCCN2C(=O)[C@H](CCC(N)=O)NC(=O)[C@H]([C@@H](C)O)NC(=O)[C@H](C(C)C)NC(=O)[C@H](CCCNC(=N)N)NC1=O) [cyclic nNOS β-hairpin peptide D114A]
7 | 21200 | 14.1 | cyclo(THLATTFTGDGTPKTIRVTQ[dP]GQ) (SMILES CC[C@H](C)[C@@H]1NC(=O)[C@H]([C@@H](C)O)NC(=O)[C@H](CCCCN)NC(=O)[C@@H]2CCCN2C(=O)[C@H]([C@@H](C)O)NC(=O)CNC(=O)[C@H](CC(=O)O)NC(=O)CNC(=O)[C@H]([C@@H](C)O)NC(=O)[C@H](Cc2ccccc2)NC(=O)[C@H]([C@@H](C)O)NC(=O)[C@H]([C@@H](C)O)NC(=O)[C@H](C)NC(=O)[C@H](CC(C)C)NC(=O)[C@H](Cc2c[nH]cn2)NC(=O)[C@H]([C@@H](C)O)NC(=O)[C@H](CCC(N)=O)NC(=O)CNC(=O)[C@H]2CCCN2C(=O)[C@H](CCC(N)=O)NC(=O)[C@H]([C@@H](C)O)NC(=O)[C@H](C(C)C)NC(=O)[C@H](CCCNC(=N)N)NC1=O) [cyclic nNOS β-hairpin peptide E108A]
8 | 2060 | 1.37 | cyclo(TALETTFTGDGTPKTIRVTQ[dP]GQ) (SMILES CC[C@H](C)[C@@H]1NC(=O)[C@H]([C@@H](C)O)NC(=O)[C@H](CCCCN)NC(=O)[C@@H]2CCCN2C(=O)[C@H]([C@@H](C)O)NC(=O)CNC(=O)[C@H](CC(=O)O)NC(=O)CNC(=O)[C@H]([C@@H](C)O)NC(=O)[C@H](Cc2ccccc2)NC(=O)[C@H]([C@@H](C)O)NC(=O)[C@H]([C@@H](C)O)NC(=O)[C@H](CCC(=O)O)NC(=O)[C@H](CC(C)C)NC(=O)[C@H](C)NC(=O)[C@H]([C@@H](C)O)NC(=O)[C@H](CCC(N)=O)NC(=O)CNC(=O)[C@H]2CCCN2C(=O)[C@H](CCC(N)=O)NC(=O)[C@H]([C@@H](C)O)NC(=O)[C@H](C(C)C)NC(=O)[C@H](CCCNC(=N)N)NC1=O) [cyclic nNOS β-hairpin peptide H106A]
9 | 4550 | 3.03 | cyclo(THLETTFTADGTPKTIRVTQ[dP]GQ) (SMILES CC[C@H](C)[C@@H]1NC(=O)[C@H]([C@@H](C)O)NC(=O)[C@H](CCCCN)NC(=O)[C@@H]2CCCN2C(=O)[C@H]([C@@H](C)O)NC(=O)CNC(=O)[C@H](CC(=O)O)NC(=O)[C@H](C)NC(=O)[C@H]([C@@H](C)O)NC(=O)[C@H](Cc2ccccc2)NC(=O)[C@H]([C@@H](C)O)NC(=O)[C@H]([C@@H](C)O)NC(=O)[C@H](CCC(=O)O)NC(=O)[C@H](CC(C)C)NC(=O)[C@H](Cc2c[nH]cn2)NC(=O)[C@H]([C@@H](C)O)NC(=O)[C@H](CCC(N)=O)NC(=O)CNC(=O)[C@H]2CCCN2C(=O)[C@H](CCC(N)=O)NC(=O)[C@H]([C@@H](C)O)NC(=O)[C@H](C(C)C)NC(=O)[C@H](CCCNC(=N)N)NC1=O) [cyclic nNOS β-hairpin peptide G113A]
10 | 1760 | 1.17 | cyclo(THLETTFTGDGTPKTARVTQ[dP]GQ) (SMILES CC(C)C[C@@H]1NC(=O)[C@H](Cc2c[nH]cn2)NC(=O)[C@H]([C@@H](C)O)NC(=O)[C@H](CCC(N)=O)NC(=O)CNC(=O)[C@H]2CCCN2C(=O)[C@H](CCC(N)=O)NC(=O)[C@H]([C@@H](C)O)NC(=O)[C@H](C(C)C)NC(=O)[C@H](CCCNC(=N)N)NC(=O)[C@H](C)NC(=O)[C@H]([C@@H](C)O)NC(=O)[C@H](CCCCN)NC(=O)[C@@H]2CCCN2C(=O)[C@H]([C@@H](C)O)NC(=O)CNC(=O)[C@H](CC(=O)O)NC(=O)CNC(=O)[C@H]([C@@H](C)O)NC(=O)[C@H](Cc2ccccc2)NC(=O)[C@H]([C@@H](C)O)NC(=O)[C@H]([C@@H](C)O)NC(=O)[C@H](CCC(=O)O)NC1=O) [cyclic nNOS β-hairpin peptide I120A]
11 | 1430 | 0.95 | cyclo(THLETTFTGDGTPATIRVTQ[dP]GQ) (SMILES CC[C@H](C)[C@@H]1NC(=O)[C@H]([C@@H](C)O)NC(=O)[C@H](C)NC(=O)[C@@H]2CCCN2C(=O)[C@H]([C@@H](C)O)NC(=O)CNC(=O)[C@H](CC(=O)O)NC(=O)CNC(=O)[C@H]([C@@H](C)O)NC(=O)[C@H](Cc2ccccc2)NC(=O)[C@H]([C@@H](C)O)NC(=O)[C@H]([C@@H](C)O)NC(=O)[C@H](CCC(=O)O)NC(=O)[C@H](CC(C)C)NC(=O)[C@H](Cc2c[nH]cn2)NC(=O)[C@H]([C@@H](C)O)NC(=O)[C@H](CCC(N)=O)NC(=O)CNC(=O)[C@H]2CCCN2C(=O)[C@H](CCC(N)=O)NC(=O)[C@H]([C@@H](C)O)NC(=O)[C@H](C(C)C)NC(=O)[C@H](CCCNC(=N)N)NC1=O) [cyclic nNOS β-hairpin peptide K118A]
